Data published in patent publication US20220133849A1.

Molecular target: Maxi-K channel of rat bladder detrusor smooth muscle (endogenous) (rat) (UniProt Q62976)
Assay: cell-based or functional assay

Chain of UniProt Q62976 (Q62976 whole entry): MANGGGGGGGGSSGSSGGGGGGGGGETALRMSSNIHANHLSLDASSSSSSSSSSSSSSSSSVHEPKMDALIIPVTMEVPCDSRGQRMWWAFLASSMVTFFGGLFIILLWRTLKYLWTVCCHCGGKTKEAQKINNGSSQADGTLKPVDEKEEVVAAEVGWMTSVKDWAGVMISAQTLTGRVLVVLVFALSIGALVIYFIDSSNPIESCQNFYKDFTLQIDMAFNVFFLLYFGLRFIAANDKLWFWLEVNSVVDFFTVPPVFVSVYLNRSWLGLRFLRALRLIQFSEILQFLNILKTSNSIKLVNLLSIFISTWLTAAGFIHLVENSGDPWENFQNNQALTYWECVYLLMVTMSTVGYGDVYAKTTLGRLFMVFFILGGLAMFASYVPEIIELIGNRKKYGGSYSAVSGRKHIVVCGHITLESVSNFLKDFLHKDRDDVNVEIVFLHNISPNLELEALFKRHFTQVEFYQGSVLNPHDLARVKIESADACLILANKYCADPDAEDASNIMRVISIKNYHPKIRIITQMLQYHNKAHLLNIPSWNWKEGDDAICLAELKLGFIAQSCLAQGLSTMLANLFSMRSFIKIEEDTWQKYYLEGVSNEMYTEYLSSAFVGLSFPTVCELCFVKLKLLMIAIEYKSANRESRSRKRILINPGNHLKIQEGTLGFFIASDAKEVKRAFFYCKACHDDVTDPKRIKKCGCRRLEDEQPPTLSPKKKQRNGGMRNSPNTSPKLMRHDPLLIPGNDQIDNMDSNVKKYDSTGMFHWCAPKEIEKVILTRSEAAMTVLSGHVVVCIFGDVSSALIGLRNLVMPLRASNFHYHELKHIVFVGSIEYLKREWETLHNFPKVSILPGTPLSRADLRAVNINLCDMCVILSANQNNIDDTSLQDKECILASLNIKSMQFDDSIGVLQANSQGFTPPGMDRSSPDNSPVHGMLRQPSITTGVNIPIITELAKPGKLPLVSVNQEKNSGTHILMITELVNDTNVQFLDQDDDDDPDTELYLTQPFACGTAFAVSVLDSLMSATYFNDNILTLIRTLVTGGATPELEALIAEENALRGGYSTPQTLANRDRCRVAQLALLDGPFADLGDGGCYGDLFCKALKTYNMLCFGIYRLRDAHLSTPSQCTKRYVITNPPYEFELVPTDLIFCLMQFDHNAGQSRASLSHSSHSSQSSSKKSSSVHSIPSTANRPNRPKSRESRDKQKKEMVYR

In the case of “iberiotoxin (from UniProt P24663 1-37) (peptide)”, the outward current in response to applied voltage, single whole-cell patch clamp of isolated rat detrusor cells, 300 nM IBTX was greater than 50%.
